From PMC5472717

What was measured:
[1] = system: Zur (zinc uptake regulator) (Streptomyces coelicolor A3(2) M145?); test: EMSA; conditions: 5 uM ZnSO4; 20 mM Tris-HCl pH 7.8, 50 mM KCl, 1 mM DTT, 0.1 mg/ml BSA, 5% glycerol, 0.1 ug poly(dI-dC) per 20 ul, 0-20 uM ZnSO4, room temperature 20 min; gel 5% PAGE in TB …
[2] = target: Zur (zinc uptake regulator) of Streptomyces coelicolor (Streptomyces coelicolor); test: native gel or EMSA; EMSA of purified Zur (0-90 nM) on 32P-labelled znuA and zitB DNA probes (25, 33, 46, 114 bp) with 0-20 uM ZnSO4; 20 mM Tris-HCl pH 7.8, 50 mM KCl, 1 mM DTT, room temperature; the number of Zur chains in each shifted band was estimated from mobility on native PAGE at different acrylamide percentages; Zur oligomers seen only on DNA

GCACATGACAACGGTGTTCAGTGCC (double strand) [zitB 25 bp Zur-box probe (-63 to -39)]
Kd [1]: 19.3 nM

Zur (zinc uptake regulator) of Streptomyces coelicolor (natural protein)
stoichiometry N [2]: 2
